Test results as given in article PMC9947421.

Key:
Assay in all cases: AP-MS
[1] = target: Rap1-interacting factor 1 (RIF1) (UniProt Q5UIP0)
[2] = target: DNA-dependent protein kinase, catalytic subunit (PRKDC/DNAPKcs) (UniProt P78527)
[3] = target: poly(ADP-ribose) polymerase 1 (PARP1) (UniProt P09874)
[4] = target: transcriptional co-activator with PDZ-binding motif (TAZ) (UniProt Q9GZV5); details: read off a plot
[5] = target: Yes-associated protein (YAP) (UniProt P46937); details: read off a plot
[6] = target: X-ray repair cross-complementing protein 6 (XRCC6) (UniProt P12956); details: HEK293 cells
VGLL4 = VGLL4 (UniProt Q14135); details: read off a plot

Chain of UniProt P78527 (P78527 whole entry): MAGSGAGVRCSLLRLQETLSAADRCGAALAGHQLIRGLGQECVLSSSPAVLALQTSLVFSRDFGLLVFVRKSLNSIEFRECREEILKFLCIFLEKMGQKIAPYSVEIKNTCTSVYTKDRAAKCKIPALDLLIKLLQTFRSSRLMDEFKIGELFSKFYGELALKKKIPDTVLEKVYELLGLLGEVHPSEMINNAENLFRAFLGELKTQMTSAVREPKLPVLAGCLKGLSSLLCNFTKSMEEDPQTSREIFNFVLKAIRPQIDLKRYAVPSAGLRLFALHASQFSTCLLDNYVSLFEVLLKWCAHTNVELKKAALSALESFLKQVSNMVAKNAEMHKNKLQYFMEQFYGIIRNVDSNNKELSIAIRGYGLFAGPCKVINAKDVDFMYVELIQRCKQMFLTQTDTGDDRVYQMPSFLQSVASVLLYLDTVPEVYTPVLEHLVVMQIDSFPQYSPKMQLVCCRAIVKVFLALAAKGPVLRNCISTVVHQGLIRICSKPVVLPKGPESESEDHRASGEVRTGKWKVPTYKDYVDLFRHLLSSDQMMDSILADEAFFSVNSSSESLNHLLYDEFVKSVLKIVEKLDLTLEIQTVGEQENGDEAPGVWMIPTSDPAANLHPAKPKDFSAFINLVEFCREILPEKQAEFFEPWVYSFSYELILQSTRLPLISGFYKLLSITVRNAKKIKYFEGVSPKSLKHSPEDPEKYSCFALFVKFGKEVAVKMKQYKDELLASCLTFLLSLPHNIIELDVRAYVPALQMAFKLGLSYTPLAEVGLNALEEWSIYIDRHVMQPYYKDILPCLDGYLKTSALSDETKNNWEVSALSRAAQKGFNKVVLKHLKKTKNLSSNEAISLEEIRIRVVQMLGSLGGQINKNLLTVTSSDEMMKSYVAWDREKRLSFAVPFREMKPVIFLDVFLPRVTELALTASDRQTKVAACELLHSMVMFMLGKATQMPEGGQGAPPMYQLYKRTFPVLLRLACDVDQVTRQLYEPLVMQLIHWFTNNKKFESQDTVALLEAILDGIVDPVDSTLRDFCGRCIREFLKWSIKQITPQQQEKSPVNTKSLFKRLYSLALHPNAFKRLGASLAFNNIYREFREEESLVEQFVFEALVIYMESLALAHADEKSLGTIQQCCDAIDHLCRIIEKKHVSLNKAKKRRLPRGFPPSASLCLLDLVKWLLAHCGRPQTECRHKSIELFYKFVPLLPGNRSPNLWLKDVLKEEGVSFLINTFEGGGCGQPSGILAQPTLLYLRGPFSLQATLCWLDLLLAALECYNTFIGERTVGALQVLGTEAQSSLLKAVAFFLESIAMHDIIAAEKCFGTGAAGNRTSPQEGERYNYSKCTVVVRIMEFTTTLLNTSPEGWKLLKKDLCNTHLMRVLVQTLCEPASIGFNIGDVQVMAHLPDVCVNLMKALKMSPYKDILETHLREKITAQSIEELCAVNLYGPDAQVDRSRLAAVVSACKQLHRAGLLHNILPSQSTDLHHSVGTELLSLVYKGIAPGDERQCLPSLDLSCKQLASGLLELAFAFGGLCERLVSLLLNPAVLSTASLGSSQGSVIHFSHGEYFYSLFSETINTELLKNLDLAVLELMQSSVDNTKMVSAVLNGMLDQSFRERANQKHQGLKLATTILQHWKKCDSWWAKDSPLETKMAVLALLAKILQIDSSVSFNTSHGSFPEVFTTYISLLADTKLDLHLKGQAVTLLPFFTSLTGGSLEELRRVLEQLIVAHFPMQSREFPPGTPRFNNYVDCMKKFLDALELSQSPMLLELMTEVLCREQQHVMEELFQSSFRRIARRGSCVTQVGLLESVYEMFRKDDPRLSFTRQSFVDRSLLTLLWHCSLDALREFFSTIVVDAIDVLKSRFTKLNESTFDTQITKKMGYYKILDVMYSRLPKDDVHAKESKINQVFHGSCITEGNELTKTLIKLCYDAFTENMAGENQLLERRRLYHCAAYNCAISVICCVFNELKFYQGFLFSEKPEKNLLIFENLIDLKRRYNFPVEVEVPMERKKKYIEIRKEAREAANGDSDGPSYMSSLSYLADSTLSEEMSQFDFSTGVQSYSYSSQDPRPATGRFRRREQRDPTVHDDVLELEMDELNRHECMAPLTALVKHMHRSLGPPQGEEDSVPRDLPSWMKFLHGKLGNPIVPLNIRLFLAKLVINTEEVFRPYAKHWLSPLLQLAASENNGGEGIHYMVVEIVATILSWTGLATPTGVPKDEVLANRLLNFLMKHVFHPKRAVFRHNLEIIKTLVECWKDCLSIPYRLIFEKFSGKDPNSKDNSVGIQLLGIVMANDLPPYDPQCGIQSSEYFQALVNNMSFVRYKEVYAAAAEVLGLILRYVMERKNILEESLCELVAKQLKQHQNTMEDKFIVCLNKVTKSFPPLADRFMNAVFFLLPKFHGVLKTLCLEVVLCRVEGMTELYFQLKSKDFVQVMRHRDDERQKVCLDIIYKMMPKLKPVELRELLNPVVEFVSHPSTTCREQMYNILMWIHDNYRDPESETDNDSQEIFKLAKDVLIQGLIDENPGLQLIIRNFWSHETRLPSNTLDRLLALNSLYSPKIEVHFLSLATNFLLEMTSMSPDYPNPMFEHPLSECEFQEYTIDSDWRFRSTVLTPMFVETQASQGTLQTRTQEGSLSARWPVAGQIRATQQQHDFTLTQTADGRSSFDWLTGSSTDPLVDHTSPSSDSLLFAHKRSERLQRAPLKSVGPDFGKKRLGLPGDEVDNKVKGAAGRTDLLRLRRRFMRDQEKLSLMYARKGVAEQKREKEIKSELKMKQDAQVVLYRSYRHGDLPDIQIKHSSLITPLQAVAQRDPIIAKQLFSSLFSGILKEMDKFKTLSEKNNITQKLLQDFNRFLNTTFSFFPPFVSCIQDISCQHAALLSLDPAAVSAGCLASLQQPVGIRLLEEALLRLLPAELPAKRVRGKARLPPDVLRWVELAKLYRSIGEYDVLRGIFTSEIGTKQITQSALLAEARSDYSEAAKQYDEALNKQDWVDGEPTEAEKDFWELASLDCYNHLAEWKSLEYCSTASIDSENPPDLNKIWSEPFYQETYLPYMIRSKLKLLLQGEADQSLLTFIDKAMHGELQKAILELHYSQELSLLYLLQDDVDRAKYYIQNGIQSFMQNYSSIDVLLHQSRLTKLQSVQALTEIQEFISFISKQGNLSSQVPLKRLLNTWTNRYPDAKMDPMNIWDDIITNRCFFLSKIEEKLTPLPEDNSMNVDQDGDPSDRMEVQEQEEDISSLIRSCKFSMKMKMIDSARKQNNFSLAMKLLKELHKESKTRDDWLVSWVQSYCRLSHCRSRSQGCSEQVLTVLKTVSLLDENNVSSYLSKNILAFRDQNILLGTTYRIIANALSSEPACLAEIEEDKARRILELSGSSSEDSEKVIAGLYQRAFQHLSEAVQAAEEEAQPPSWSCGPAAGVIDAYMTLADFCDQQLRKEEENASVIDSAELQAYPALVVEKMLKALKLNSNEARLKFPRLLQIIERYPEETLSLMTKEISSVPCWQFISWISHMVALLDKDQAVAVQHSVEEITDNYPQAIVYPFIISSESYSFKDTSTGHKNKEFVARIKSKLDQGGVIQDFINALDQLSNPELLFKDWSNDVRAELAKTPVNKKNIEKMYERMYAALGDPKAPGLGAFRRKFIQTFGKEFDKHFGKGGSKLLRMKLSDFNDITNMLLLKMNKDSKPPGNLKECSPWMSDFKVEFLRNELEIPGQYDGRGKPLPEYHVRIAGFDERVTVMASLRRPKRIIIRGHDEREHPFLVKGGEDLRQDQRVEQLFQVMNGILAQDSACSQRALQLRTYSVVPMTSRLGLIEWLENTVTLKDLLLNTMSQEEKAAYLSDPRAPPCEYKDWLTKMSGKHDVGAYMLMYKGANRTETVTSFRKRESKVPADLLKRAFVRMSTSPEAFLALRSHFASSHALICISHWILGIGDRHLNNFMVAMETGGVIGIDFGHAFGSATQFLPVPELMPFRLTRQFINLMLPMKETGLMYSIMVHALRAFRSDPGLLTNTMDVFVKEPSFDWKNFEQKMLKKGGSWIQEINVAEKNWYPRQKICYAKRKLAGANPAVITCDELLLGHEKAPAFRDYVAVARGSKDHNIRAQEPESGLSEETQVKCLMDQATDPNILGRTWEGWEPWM
Chain of UniProt P09874 (P09874 whole entry): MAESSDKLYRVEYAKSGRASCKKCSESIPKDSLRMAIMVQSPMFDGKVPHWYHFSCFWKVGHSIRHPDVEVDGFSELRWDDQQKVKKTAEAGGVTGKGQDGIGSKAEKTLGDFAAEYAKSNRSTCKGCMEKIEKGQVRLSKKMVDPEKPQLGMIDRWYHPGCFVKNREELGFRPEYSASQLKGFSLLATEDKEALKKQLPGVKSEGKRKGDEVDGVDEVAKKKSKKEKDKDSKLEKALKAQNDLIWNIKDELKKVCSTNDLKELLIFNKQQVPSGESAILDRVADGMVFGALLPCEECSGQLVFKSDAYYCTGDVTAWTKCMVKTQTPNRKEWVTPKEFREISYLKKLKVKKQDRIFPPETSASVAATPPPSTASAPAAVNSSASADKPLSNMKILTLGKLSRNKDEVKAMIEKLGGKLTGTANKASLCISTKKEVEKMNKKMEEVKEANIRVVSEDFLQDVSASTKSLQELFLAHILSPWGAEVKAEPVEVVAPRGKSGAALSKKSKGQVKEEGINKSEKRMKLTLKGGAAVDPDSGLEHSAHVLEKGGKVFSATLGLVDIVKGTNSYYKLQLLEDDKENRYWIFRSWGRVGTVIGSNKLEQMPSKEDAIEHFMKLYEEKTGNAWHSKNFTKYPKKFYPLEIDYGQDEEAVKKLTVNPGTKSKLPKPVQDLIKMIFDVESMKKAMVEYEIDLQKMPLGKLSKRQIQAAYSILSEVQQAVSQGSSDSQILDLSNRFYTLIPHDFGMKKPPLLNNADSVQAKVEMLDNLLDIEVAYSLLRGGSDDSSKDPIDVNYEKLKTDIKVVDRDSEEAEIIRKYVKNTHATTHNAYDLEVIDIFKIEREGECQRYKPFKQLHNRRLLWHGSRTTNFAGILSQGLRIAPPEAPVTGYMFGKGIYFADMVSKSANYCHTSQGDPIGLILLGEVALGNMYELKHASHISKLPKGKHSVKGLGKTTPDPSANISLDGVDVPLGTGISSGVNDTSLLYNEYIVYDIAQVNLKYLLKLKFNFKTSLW

Question: “WT TEAD3-Myc/Flag (from UniProt Q99594) … -> … (R>N; K>N; R>N; K>N; K>N; V>N; R>N; residue numbers not printed)” was tested. Which response ([1]; Detroit 562 cells, replicate TEAD3 mut_1 (parent: TEAD3_WT_1), parent: 302) did it give?
Answer: 118 PSMs

Question: What about the response ([1]; Detroit 562 cells, replicate TEAD3 mut_2 (parent: TEAD3_WT_2), parent: 297) of the same substance?
Answer: 45 PSMs

Question: And the response ([1]; Detroit 562 cells, replicate TEAD3 mut_3 (parent: TEAD3_WT_3), parent: 331)?
Answer: 26 PSMs

Question: And the response ([1]; HEK293 cells, replicate TEAD3 mut_1)?
Answer: 2 PSMs

Question: What about the response ([1]; HEK293 cells, replicate TEAD3 mut_2 (parent: TEAD3_WT_2), parent: 3) of the same substance?
Answer: 1 PSMs

Question: What about the response ([2]; Detroit 562 cells, replicate TEAD3 mut_1 (parent: TEAD3_WT_1), parent: 232) of the same substance?
Answer: 132 PSMs

Question: And the response ([2]; Detroit 562 cells, replicate TEAD3 mut_2 (parent: TEAD3_WT_2), parent: 898)?
Answer: 496 PSMs

Question: And the response ([2]; Detroit 562 cells, replicate TEAD3 mut_3 (parent: TEAD3_WT_3), parent: 658)?
Answer: 396 PSMs

Question: What about the response ([2]; HEK293 cells, replicate TEAD3 mut_1 (parent: TEAD3_WT_1), parent: 258) of the same substance?
Answer: 167 PSMs

Question: And the response ([2]; HEK293 cells, replicate TEAD3 mut_2 (parent: TEAD3_WT_2), parent: 223)?
Answer: 195 PSMs

Question: What about the response ([2]; HEK293 cells, replicate TEAD3 mut_3 (parent: TEAD3_WT_3), parent: 216) of the same substance?
Answer: 230 PSMs

Question: And the response ([3]; Detroit 562 cells, replicate TEAD3 mut_1 (parent: TEAD3_WT_1), parent: 90)?
Answer: 6 PSMs

Question: And the response ([3]; Detroit 562 cells, replicate TEAD3 mut_2 (parent: TEAD3_WT_2), parent: 76)?
Answer: 5 PSMs

Question: And the response ([3]; Detroit 562 cells, replicate TEAD3 mut_3 (parent: TEAD3_WT_3), parent: 87)?
Answer: 8 PSMs

Question: And the response ([3]; HEK293 cells, replicate TEAD3 mut_1 (parent: TEAD3_WT_1), parent: 380)?
Answer: 1 PSMs

Question: And the response ([3]; HEK293 cells, replicate TEAD3 mut_2 (parent: TEAD3_WT_2), parent: 624)?
Answer: 3 PSMs

Question: And the response ([3]; HEK293 cells, replicate TEAD3 mut_3 (parent: TEAD3_WT_3), parent: 950)?
Answer: 4 PSMs

Question: What about the response (average sum PSMs) ([4]; Detroit 562 cells, parent: est. 170) of the same substance?
Answer: 250

Question: And the response (average sum PSMs) ([4]; HEK293 cells, parent: est. 23)?
Answer: 22

Question: What about the response (average sum PSMs) ([5]; Detroit 562 cells, parent: est. 620) of the same substance?
Answer: 960

Question: What about the response (average sum PSMs) ([5]; HEK293 cells, parent: est. 200) of the same substance?
Answer: 230

Question: And the response ([6]; replicate TEAD3 mut_1 (parent: TEAD3_WT_1), parent: 56)?
Answer: 1 PSMs

Question: And the response ([6]; replicate TEAD3 mut_3 (parent: TEAD3_WT_3), parent: 92)?
Answer: 1 PSMs

Question: What about the response (average sum PSMs) (VGLL4; Detroit 562 cells, parent: est. 90) of the same substance?
Answer: 75

Question: And the response (average sum PSMs) (VGLL4; HEK293 cells, parent: est. 150)?
Answer: 190
